Source: patent US5849493, “Screening assay for compounds stimulating somatostatin transcription factor -1 binding to an STF-1 binding site” (Research Development Foundation, dated 1997)

Columns and labels:
[1] = molecular target: T1, Pbx1, in vitro translated protein (human, UniProt P40424); assay: gel mobility shift, TSEII probe
Method: Deletion endpoints in mutant STF-1 polypeptides are indicated over each lane. For example, Δ1-70 indicates STF-1 polypeptide lacking residues 1–70. Hox 140–215, STF-1 homeodomain polypeptide. […] H.D., STF-1 homeodomain (amino acid residues 140–215). Full length STF-1 protein extends from amino acid residues 1–284.
(§1) Gel mobility shift assays were performed exactly as described previously (20) using 0.1 ng of end-labeled double stranded oligonucleotide whose sequences are presented in FIG. 2C. For off-rate analysis, the TSEII probe was first incubated with the proteins at room temperature for 30 minutes, then a 1000-fold excess of unlabeled TSEII oligonucleotide was added and aliquots were loaded at various time points on a running gel. In supershift assays, TU6 nuclear cell extract was preincubated with 1 µl of Pbx (11) or STF-antiserum (20) for 15 minutes at room temperature before adding the TSEII probe.

[2] = molecular target: T1, Pbx1, in vitro translated protein; assay: gel mobility shift, TSEII probe, reticulocyte lysate programmed with PBX RNA
Description: Isl1 H.D., homeodomain of the lim domain factor Isl1. PBX interaction motif-Isl1 H.D., STF-1-Isl1 fusion protein containing STF-1 PBX interaction motif region (amino acid residues 110–138) fused to the Isl1 homeodomain. cdx3 H.D., homeodomain of the pancreatic homeobox protein cdx3 (amino acid residues 143–253). PBX interaction motif-cdx3, fusion protein containing STF-1 PBX interaction motif region (amino acid residues 110–138) fused to the cdx3 homeodomain (amino acid residues 176–253). PBX interaction motif-STF-1, STF-1 polypeptide containing the PBX interaction motif region (110–138) fused to the STF-1 homeodomain (amino acid residues 140–215). STF-1 H.D. STF-1 homeodomain alone without the PBX interaction motif region. […] Cooperativity with PBX tested with homeodomain fusion proteins shown over each lane. Monomeric and heterodimeric complexes as labeled.
as §1

B1: STF-1 homeodomain polypeptide Hox 140-215 (other)
chain: not shown
- binding result [1]: no binding

B2: GST-Isl1 H.D. fusion protein (other)
chain: KQPEKTTRVRTVLNEKQLHTLRTCYAANPRPDALMKEQLVEMTGLSPRVIRVWFQNKRCKDKKRSIMMKQLQQ
- binding result [2]: no binding

B3: GST-PBX interaction motif-Isl1 H.D. fusion protein (other)
chain: EEPSRVHLPFPWMKSTKAHAWKSQWAGGAKQPEKTTRVRTVLNEKQLHTLRTCYAANPRPDALMKEQLVEMTGLSPRVIRVWFQNKRCKDKKRSIMMKQLQQ
- binding result [2]: no binding

B4: GST-cdx3 H.D. fusion protein (other)
chain: PPGPAATGAAEQLSPSGQRRNLCEWMRKPAQPSLGSQVKTRTKDKYRVVYTDHQRLELEKEFHYSRYITIRRKAELAATLGLSERQVKIWFQNRRAKERKINKKKLQQQQQ
- binding result [2]: no binding

B5: GST-PBX interaction motif-cdx3 fusion protein (other)
chain: EEPSRVHLPFPWMKSTKAHAWKSQWAGGALGSQVKTRTKDKYRVVYTDHQRLELEKEFHYSRYITIRRKAELAATLGLSERQVKIWFQNRRAKERKINKKKLQQQQQ
- binding result [2]: no binding
